This note sets out measurements from doi:10.1101/2022.04.11.487922.

The target in data set [1] is T1, p50 (in p50/RelA);RelA FL (in p50/RelAFL) (Mus musculus;Mus musculus, UniProt P25799;Q04207 39-350;19-549, |). In words: EMSA. For orientation: Mobility shift assays separate free from complexed probe on a gel.
Data set [2] has as its target T2, p50 (in p50/RelA);RelA RHD (in p50/RelARHD) (Mus musculus;Mus musculus, UniProt P25799;Q04207 39-350;19-321, |). In words: EMSA.
In data set [3] the target is T1, p50 (in p50/RelA);RelA FL (in …). In words: EMSA. The source holds these as a separate data set.
Data set [4] addresses T2, p50 (in p50/RelA);RelA RHD (in …). In words: EMSA. This is another data set of the same source.
Data set [5] deals with T1, p50 (in p50/RelA);RelA FL (in …). In words: EMSA. This is another data set of the same source.
Data set [6] concerns the target T2, p50 (in p50/RelA);RelA RHD (in …). In words: EMSA. This is another data set of the same source.
For data set [7], the target named is T1, p50 (in p50/RelA);RelA FL (in …). In words: fluorescence anisotropy. For orientation: In fluorescence polarisation assays a small probe gives low polarisation when free and higher when bound to something large.
The target in data set [8] is T2, p50 (in p50/RelA);RelA RHD (in …). In words: fluorescence anisotropy.
Data set [9] deals with T1, p50 (in p50/RelA);RelA FL (in …). In words: EMSA. This is another data set of the same source.
Data set [10] addresses T2, p50 (in p50/RelA);RelA RHD (in …). In words: EMSA. The source holds these as a separate data set.
Data set [11] addresses T1, p50 (in p50/RelA);RelA FL (in …). In words: fluorescence anisotropy. This is another data set of the same source.
In data set [12] the target is T2, p50 (in p50/RelA);RelA RHD (in …). In words: fluorescence anisotropy. The source holds these as a separate data set.
The target in data set [13] is T1, p50 (in p50/RelA);RelA FL (in …). In words: fluorescence anisotropy. The source holds these as a separate data set.
The target in data set [14] is T2, p50 (in p50/RelA);RelA RHD (in …). In words: fluorescence anisotropy. This is another data set of the same source.
The target in data set [15] is T1, p50 (in p50/RelA);RelA FL (in …). In words: fluorescence anisotropy. This is another data set of the same source.
The target of data set [16] is T2, p50 (in p50/RelA);RelA RHD (in …). In words: fluorescence anisotropy. The source holds these as a separate data set.
Data set [17] addresses T1, p50 (in p50/RelA);RelA FL (in …). In words: EMSA. This is another data set of the same source.
Data set [18] concerns the target T2, p50 (in p50/RelA);RelA RHD (in …). In words: EMSA. The source holds these as a separate data set.

Where two headings read alike, the source gives them in different places.

T2 sequence (P25799 39-350, chain 1 of 2): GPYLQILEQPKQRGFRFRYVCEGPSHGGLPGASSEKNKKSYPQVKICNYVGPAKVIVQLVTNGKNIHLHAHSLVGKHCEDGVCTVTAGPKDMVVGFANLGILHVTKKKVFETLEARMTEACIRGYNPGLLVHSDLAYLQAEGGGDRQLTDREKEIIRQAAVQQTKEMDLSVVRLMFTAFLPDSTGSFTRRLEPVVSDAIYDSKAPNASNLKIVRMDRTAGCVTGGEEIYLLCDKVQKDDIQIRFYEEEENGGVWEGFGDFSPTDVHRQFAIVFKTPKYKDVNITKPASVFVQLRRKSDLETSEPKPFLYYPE
T2 sequence (Q04207 19-321, chain 2 of 2): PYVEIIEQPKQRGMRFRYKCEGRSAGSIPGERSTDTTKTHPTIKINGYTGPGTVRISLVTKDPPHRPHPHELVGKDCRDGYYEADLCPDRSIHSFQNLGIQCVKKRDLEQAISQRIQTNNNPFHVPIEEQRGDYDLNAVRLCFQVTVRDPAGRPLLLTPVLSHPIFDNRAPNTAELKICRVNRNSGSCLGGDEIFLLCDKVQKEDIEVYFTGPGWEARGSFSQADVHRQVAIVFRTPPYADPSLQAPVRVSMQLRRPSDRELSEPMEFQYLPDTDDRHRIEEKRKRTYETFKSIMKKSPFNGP
T1 sequence (P25799 39-350, chain 1 of 2): as the sequence (P25799 39-350, chain 1 of 2) above
T1 sequence (Q04207 19-549, chain 2 of 2): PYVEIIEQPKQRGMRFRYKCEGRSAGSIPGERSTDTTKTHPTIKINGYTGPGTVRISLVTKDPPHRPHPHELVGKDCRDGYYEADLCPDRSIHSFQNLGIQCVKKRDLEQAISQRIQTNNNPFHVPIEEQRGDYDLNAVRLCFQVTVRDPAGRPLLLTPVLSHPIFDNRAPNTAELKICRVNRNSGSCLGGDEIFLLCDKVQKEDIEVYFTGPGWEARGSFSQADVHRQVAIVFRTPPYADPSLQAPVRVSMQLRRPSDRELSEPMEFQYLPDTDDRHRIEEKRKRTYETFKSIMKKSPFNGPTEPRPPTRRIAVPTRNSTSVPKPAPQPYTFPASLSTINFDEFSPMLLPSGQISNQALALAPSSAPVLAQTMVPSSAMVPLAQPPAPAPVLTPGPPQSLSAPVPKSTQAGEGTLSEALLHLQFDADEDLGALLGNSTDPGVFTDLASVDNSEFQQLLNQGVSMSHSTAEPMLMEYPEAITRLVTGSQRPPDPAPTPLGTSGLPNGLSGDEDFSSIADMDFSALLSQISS

B1: NFKBIA, site 2 scrambled (dsDNA)
DNA 1: CTGACTGGCTTGGAAATTCCCCGAGCCTGACCCCGCCCCAAGCACTGACACAGCCAGCG
DNA 2: CGCTGGCTGTGTCAGTGCTTGGGGCGGGGTCAGGCTCGGGGAATTTCCAAGCCAGTCAG
Turning to B1, the binding result in data set [1] and in [2] was “binds” each time.

B2: HIV LTR, site 1 scrambled (dsDNA)
DNA 1: AAGTCGACTGTCGCTGGGGACTTTCCAGGGAGG
DNA 2: CCTCCCTGGAAAGTCCCCAGCGACAGTCGACTT
B2: the binding result in data set [3] and in data set [4] was “binds” in each case.

B3: HIV LTR, site 2 scrambled (dsDNA)
DNA 1: AAGGGACTTTCCGCTGGTCGACTGTCAGGGAGG
DNA 2: CCTCCCTGACAGTCGACCAGCGGAAAGTCCCTT
For the molecule B3, the binding result in data set [5] and in [6] was “binds” each time.

B4: HIV LTR tandem dsDNA (anisotropy) (dsDNA)
DNA 1: CAAGGGACTTTCCGCTGGGGACTTTCCAGG
DNA 2: CCTGGAAAGTCCCCAGCGGAAAGTCCCTTG
modifications: 5' 5AmMC6
As to B4, the Kd (commonly the concentration at which binding is half-saturated) in data set [7] was 1.3 ± 0.4 nM; in data set [8] it was 1.7 ± 0.4 nM.

B5: HIV LTR tandem kB 33 bp (EMSA) (dsDNA)
DNA 1: AAGGGACTTTCCGCTGGGGACTTTCCAGGGAGG
DNA 2: CCTCCCTGGAAAGTCCCCAGCGGAAAGTCCCTT
Take B5: the binding result in data set [9] and in data set [10] was “binds” each time.

On to GTAGACGTGCTCCCCCAGCACGTCTAC (structured_DNA, 5' 5AmMC6) [Random hairpin], for which the figures for the dissociation constant (Kd) in data set [11] and in data set [12] were 130 ± 40 nM and 1500 ± 100 nM, respectively.

B6: NFKBIA tandem dsDNA (anisotropy), forward label (dsDNA)
DNA 1: CTTGGAAATTCCCCGAGCCTGACCCCGCCCCAGAGAAATCCCCAG
DNA 2: CTGGGGATTTCTCTGGGGCGGGGTCAGGCTCGGGGAATTTCCAAG
modifications: 5' 5AmMC6
Consider B6, for which the Kd in [13] worked out at 1.5 ± 0.7 nM; in data set [14] it was 1.7 ± 0.5 nM.

B7: NFKBIA tandem dsDNA (anisotropy), reverse label (dsDNA)
DNA 1: CTTGGAAATTCCCCGAGCCTGACCCCGCCCCAGAGAAATCCCCAG
DNA 2: CTGGGGATTTCTCTGGGGCGGGGTCAGGCTCGGGGAATTTCCAAG
modifications: 5' 5AmMC6
In the case of B7, the Kd was determined as 5.1 ± 0.4 nM in [15] and 10 ± 2 nM in data set [16].

B8: NFKBIA tandem kB 59 bp (EMSA) (dsDNA)
DNA 1: CTGACTGGCTTGGAAATTCCCCGAGCCTGACCCCGCCCCAGAGAAATCCCCAGCCAGCG
DNA 2: CGCTGGCTGGGGATTTCTCTGGGGCGGGGTCAGGCTCGGGGAATTTCCAAGCCAGTCAG
For the molecule B8, the binding result in [17] and in data set [18] was “binds” each time.

B9: NFKBIA, site 1 scrambled (dsDNA)
DNA 1: CTGACTGGCTTAGTCACGTCACGAGCCTGACCCCGCCCCAGAGAAATCCCCAGCCAGCG
DNA 2: CGCTGGCTGGGGATTTCTCTGGGGCGGGGTCAGGCTCGTGACGTGACTAAGCCAGTCAG
In the case of B9, the binding result in data set [1] and in data set [2] was “binds” in each case.
